These results are taken from publication PMC6467980.

pKd: −log10 of the molar value.

One may read the pKd as the Kd on a negative log10 scale, so that one unit is a factor of ten. By koff is commonly meant a measure of how fast the partners let go of each other. What is called kon is the rate constant with which the complex forms. As usually defined, the stoichiometry N is a count of units in the complex or per binding partner.

In one data set the test system is P04501. Briefly: SEC-MALS; Superdex 200 Increase 10/300 GL, 1X TBS, 1 mL/min; 100 µL at 2.5-2.8 mg/mL in PBS with 5% glycerol; native (oxidized) or reduced with DTT (1.6 mM, 50 °C 10 min, then a further 1.6 mM).
The target in data set [1] is recombinant human desmoglein 2 (human) (UniProt Q14126). The experiment in a line: SPR; rhDSG2 amine-coupled to a CM5 chip (6000 RU), junction openers flowed; Biacore 3000, 25 °C; 10 mM HEPES, 150 mM NaCl, 0.005% surfactant P20, 2 mM CaCl2 pH 7.4; 15 µl/min; 1:1 Langmuir fit; apparent (avidity).
The target is the same in data set [2].
Data set [3] has as its target JO-4 (Adenovirus serotype 3 (Ad3)) (UniProt P04501). Briefly: SEC-MALS; Superdex 200 Increase 10/300 GL, 1X TBS, 1 mL/min; 100 µL at 2.5-2.8 mg/mL in PBS with 5% glycerol; native (oxidized) or reduced with DTT (1.6 mM, 50 °C 10 min, then a further 1.6 mM). (Size exclusion chromatography separates by hydrodynamic size, large species first.)
In data set [4] the target is recombinant human desmoglein 2 (human) (UniProt Q14126). This is another data set of the same source.
The target of data set [5] is GB7_(V239D) (Adenovirus serotype 3 (Ad3)) (UniProt P04501). Briefly: SPR; JO-4 or GB7_(V239D) amine-coupled to a CM5 chip (approximately 6000 RU), rhDSG2 flowed (17.4 nM to 0.87 nM, triplicate); Biacore 3000, 25 °C; 10 mM HEPES, 150 mM NaCl, 0.005% surfactant P20, 2 mM CaCl2 pH 7.4; 15 µl/min; 1:1 Langmuir fit; apparent (avidity).
In data set [6] the target is JO-4 (Adenovirus serotype 3 (Ad3)) (UniProt P04501). The data set is described as above.

With JO-4, in the data set on P04501, the % total as Aggregate (Agg.), oxidized amounted to 90% and the % total as Aggregate (Agg.), reduced was 94%.

In the case of “JO-4 (from UniProt P04501 127-319) (designed binder)”, in data set [1], the pKd is 7.94, the koff was 0.00264 s⁻¹ and the kon is 232000 M⁻¹ s⁻¹. Besides, in data set [2], the DSG2 shedding (fold over PBS treated at 48 h), ELISA of shed DSG2 came out at 1.44 fold. In data set [3], this substance had a % total as Monomer (M), oxidized of 4%; a % total as Monomer (M), reduced of 3%; a % total as Multimer (Multi.), oxidized of 4%; a % total as Multimer (Multi.), reduced of less than 0.5%. In data set [3], this substance showed a % total as Trimer (T), oxidized of 2%; a % total as Trimer (T), reduced of 2%; a % total as Trimer-Dimer (T-D), oxidized of less than 0.5%; a % total as Trimer-Dimer (T-D), reduced of 1%. This substance also had a stoichiometry N in data set [3] of 3. In data set [4], the VIA IC50: inhibition of entry of Ad3-GFP reporter virus into HeLa cells (blocks Ad3 virus on DSG2) amounted to 0.067 mg/L.

For “recombinant human desmoglein 2 (from UniProt Q14126 50-609) (natural protein)”, in data set [5], the pKd is 8.92, the koff was 0.00075 s⁻¹ and the kon was 630000 M⁻¹ s⁻¹. For the same substance, in data set [6], the pKd is 9.24, the koff amounted to 0.00046 s⁻¹ and the kon was 790000 M⁻¹ s⁻¹.
